Measured values from PMC3439888 (Nucleic Acids Research, 2012).

Target: the molecule itself
Assay: SEC

B1: Lac repressor (natural protein)
chain: MKPVTLYDVAEYAGVSYQTVSRVVNQASHVSAKTREKVEAAMAELNYIPNRVAQQLAGKQSLLIGVATSSLALHAPSQIVAAIKSRADQLGASVVVSMVERSGVEACKAAVHNLLAQRVSGLIINYPLDDQDAIAVEAACTNVPALFLDVSDQTPINSIIFSHEDGTRLGVEHLVALGHQQIALLAGPLSSVSARLRLAGWHKYLTRNQIQPIAEREGDWSAMSGFQQTMQMLNEGIVPTAMLVANDQMALGAMRAITESGLRVGADISVVGYDDTEDSSCYIPPLTTIKQDFRLLGQTSVDRLLQLSQGQAVKGNQLLPVSLVKRKTTLAPNTQTASPRALADSLMQLARQVSRLESGQ
- stoichiometry N: 4
